Test results published in the supplement of paper PMC10126150.
± gives the standard deviation of the averaged measurements.
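Further: ATP exposure 15 min at 22 °C before imaging.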

The sequences below were run on ATP (assay: switch fluorescence ratio, 500 uM ATP over buffer (Cy3 cluster intensity, sum of 5 cycles each) (fold (ratio)); higher = stronger signal-on switching upon ATP binding; sequences stand for … in TCGTCGGCAGCGTCAGATGTGTATAAGAGACAGTTTTTTTTTTTTTTTTTTTTTTTTT…TC). Conditions: aptamer strand: ATP DNA aptamer (quencher-CACCTGGGGGAGTATTGCGGAGGAAGG + anchor), 100 nM annealed; ATP concentration: 500 uM.
How it was run: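 Cy3-labelled switching-strand clusters on a modified Illumina MiSeq flow-cell were annealed to 100 nM quencher-labelled ATP aptamer and imaged first in selection buffer, then after 15 min with 500 uM ATP at 22 °C. NaOH stripping and re-annealing separated each of five buffer/ATP cycles, and clusters outside 100-1000 RFU were excluded. The fluorescence ratio sums target-cycle Cy3 intensity over buffer-cycle Cy3 intensity per cluster and averages it per switch-domain sequence.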
Work on TGTAGCTTGT yielded a switch fluorescence ratio of 1.09 ± 0.075.
In the case of AGTTTTTTCG, the switch fluorescence ratio is reported as 0.973 ± 0.023.
GAAGTAGTTT gave a switch fluorescence ratio of 0.98 ± 0.089.
With AAGCATCATT the switch fluorescence ratio was 1.0176 ± 0.00039.
CGAGGGTGAG gave a switch fluorescence ratio of 1.01 ± 0.042.
With ATCGATGGGT the switch fluorescence ratio was 1.03 ± 0.047.
For TGCTATAGAG, the switch fluorescence ratio was 1.048 ± 0.0012.
In the case of GTTTGCGGCA, the switch fluorescence ratio is reported as 1.01 ± 0.027.
AATTTGAAAG was tested, and the switch fluorescence ratio was 1.017 ± 0.01.
ATATGTGCCA gave a switch fluorescence ratio of 0.98 ± 0.02.
With TTGTTGCTTG the switch fluorescence ratio was 1.02 ± 0.028.
In the case of TATAACTTAA, the switch fluorescence ratio is reported as 1.03 ± 0.026.
Sequence CCTTGAACGG has a switch fluorescence ratio of 0.9606 ± 0.005.
Work on AGGGTAGTAG yielded a switch fluorescence ratio of 1.015 ± 0.0063.
In the case of TTGGAAAATG, the switch fluorescence ratio is reported as 1.02 ± 0.037.
For GAGGAACCTG, the switch fluorescence ratio was 1.09 ± 0.0052.
For GATCCTGAAC, the switch fluorescence ratio was 1.37 ± 0.12.
CCTTTCGACA gave a switch fluorescence ratio of 2.08 ± 0.26.
AGGATTGGGT gave a switch fluorescence ratio of 0.99 ± 0.017.
In the case of GGGTCTACCG, the switch fluorescence ratio is reported as 0.991 ± 0.015.
GGTCCGGGGG was tested, and the switch fluorescence ratio was 1.02 ± 0.025.
With TGGGGGCTAG the switch fluorescence ratio was 0.997 ± 0.037.
CCTTCGTTGT showed a switch fluorescence ratio of 2.85 ± 0.64.
In the case of ATCGGGGGTG, the switch fluorescence ratio is reported as 0.982 ± 0.036.
With ATTATACGGG the switch fluorescence ratio was 1.052 ± 0.007.
In the case of AGCGAGTGGC, the switch fluorescence ratio is reported as 0.991 ± 0.03.
TAGCGAGTAT showed a switch fluorescence ratio of 1 ± 0.011.
In the case of CCGGGGTATT, the switch fluorescence ratio is reported as 1.07 ± 0.033.
With TCAGAAGGGT the switch fluorescence ratio was 0.994 ± 0.03.
With ATTATGTGGC the switch fluorescence ratio was 0.9803 ± 0.0086.
With GGTGGTCGAC the switch fluorescence ratio was 1.03 ± 0.038.
Sequence GGAAATCACA has a switch fluorescence ratio of 1.01 ± 0.029.
In the case of TGAATTAGAA, the switch fluorescence ratio is reported as 0.968 ± 0.018.
Work on GGTTAAGTGG yielded a switch fluorescence ratio of 1.01 ± 0.015.
Work on TGATAGGGGT yielded a switch fluorescence ratio of 1.02 ± 0.05.
Work on AAATTCGTTA yielded a switch fluorescence ratio of 0.983 ± 0.048.
Sequence CATAATTGTA has a switch fluorescence ratio of 0.979 ± 0.019.
GACTTGAGGT showed a switch fluorescence ratio of 1.03 ± 0.025.
CTAGAGGGAT gave a switch fluorescence ratio of 1.02 ± 0.038.
GTAAGATGTG gave a switch fluorescence ratio of 1.03 ± 0.028.
For ATCATTCAAA, the switch fluorescence ratio was 1.008 ± 0.0073.
CGTTTGTTTT gave a switch fluorescence ratio of 1 ± 0.041.
In the case of CACACGTACA, the switch fluorescence ratio is reported as 1.769 ± 0.01.
Work on TAGGATTACT yielded a switch fluorescence ratio of 1.02 ± 0.014.
In the case of ATCTAGGGGG, the switch fluorescence ratio is reported as 1.05 ± 0.017.
TTCCTATGTT was tested, and the switch fluorescence ratio was 0.991 ± 0.056.
GGTATTAGGG showed a switch fluorescence ratio of 1.002 ± 0.0014.
For GGGGGAGTAC, the switch fluorescence ratio was 1.025 ± 0.0084.
In the case of AGTCTGCCGG, the switch fluorescence ratio is reported as 1.01 ± 0.028.
Sequence GTTTGGGCCG has a switch fluorescence ratio of 1.07 ± 0.028.
For GGAATTGTTT, the switch fluorescence ratio was 0.974 ± 0.048.
CAAGGGGTAA gave a switch fluorescence ratio of 0.9524 ± 0.0052.
GATCTACCCA was tested, and the switch fluorescence ratio was 1.028 ± 0.0089.
With GCGAGGGTGT the switch fluorescence ratio was 1.12 ± 0.039.
AGCGAGGGGA was tested, and the switch fluorescence ratio was 1.04 ± 0.02.
With ACCACGGTGT the switch fluorescence ratio was 2.12 ± 0.075.
GGGTAGTGGT showed a switch fluorescence ratio of 1.01 ± 0.038.
In the case of GGTGAAGAGT, the switch fluorescence ratio is reported as 1 ± 0.038.
With CTTAGATGTT the switch fluorescence ratio was 0.963 ± 0.024.
In the case of GGGTTATCAG, the switch fluorescence ratio is reported as 0.981 ± 0.035.
ATTGAAGGGC was tested, and the switch fluorescence ratio was 0.9661 ± 0.0093.
Sequence GATATGGATG has a switch fluorescence ratio of 0.96 ± 0.032.
For TATACAGAGG, the switch fluorescence ratio was 0.983 ± 0.032.
ATCTGATGTC was tested, and the switch fluorescence ratio was 0.978 ± 0.018.
For CCGATGTGGT, the switch fluorescence ratio was 1.57 ± 0.039.
Work on CCTTTCGGGA yielded a switch fluorescence ratio of 1.73 ± 0.87.
ACAGGATTGG showed a switch fluorescence ratio of 1.01 ± 0.017.
For GGGTATATGG, the switch fluorescence ratio was 1.01 ± 0.022.
TGGGGTTTGT gave a switch fluorescence ratio of 0.976 ± 0.03.
With TAGGTAAGGG the switch fluorescence ratio was 0.99 ± 0.026.
AGAGCTATAA gave a switch fluorescence ratio of 1.254 ± 0.0015.
TGTCGGGGGT showed a switch fluorescence ratio of 1.22 ± 0.18.
With GGGATCCCTT the switch fluorescence ratio was 1.03 ± 0.05.
For TGGTTGAGTT, the switch fluorescence ratio was 0.973 ± 0.021.
CTAGGTAACG gave a switch fluorescence ratio of 1.02 ± 0.033.
In the case of TTTTCACCAA, the switch fluorescence ratio is reported as 1.03 ± 0.025.
AAACTGAATC was tested, and the switch fluorescence ratio was 1 ± 0.094.
GTGGTAGGTA showed a switch fluorescence ratio of 0.998 ± 0.021.
Work on TGGTCTAATG yielded a switch fluorescence ratio of 0.9791 ± 0.002.
In the case of GGATTTGGCT, the switch fluorescence ratio is reported as 0.999 ± 0.029.
In the case of TTTGTGTATT, the switch fluorescence ratio is reported as 0.97768 ± 0.00065.
In the case of GGGGCCGGTC, the switch fluorescence ratio is reported as 1 ± 0.016.
TAAGTTGTGC showed a switch fluorescence ratio of 1.02 ± 0.15.
Work on CGATTTTCCT yielded a switch fluorescence ratio of 1.01 ± 0.015.
Sequence TCATGGGGCT has a switch fluorescence ratio of 1.02 ± 0.019.
TTTATTGACT was tested, and the switch fluorescence ratio was 1.03 ± 0.013.
Work on GGGGGGTTTA yielded a switch fluorescence ratio of 1.01 ± 0.029.
For AAATGTTCAC, the switch fluorescence ratio was 0.996 ± 0.034.
In the case of GGTATATGGG, the switch fluorescence ratio is reported as 0.994 ± 0.03.
For GAGGGGAAGG, the switch fluorescence ratio was 0.958 ± 0.057.
Work on GCAAAAGGGA yielded a switch fluorescence ratio of 1.01 ± 0.013.
With TATAAATTGG the switch fluorescence ratio was 1 ± 0.032.
TTTATTTATA gave a switch fluorescence ratio of 1.01 ± 0.025.
For GCCGGGAGGA, the switch fluorescence ratio was 1.01 ± 0.032.
GGGACTTCAA showed a switch fluorescence ratio of 1 ± 0.039.
TAAGTATTGG showed a switch fluorescence ratio of 0.977 ± 0.037.
With CGGTTTATAT the switch fluorescence ratio was 0.99 ± 0.013.
With GACAATTCTT the switch fluorescence ratio was 1.006 ± 0.0096.
ACCCAGCATC gave a switch fluorescence ratio of 1.49 ± 0.025.
AGGGTTACGG was tested, and the switch fluorescence ratio was 1.02 ± 0.025.
